The values that follow come from the supplement of paper PMC5998384.

Series [1] concerns HeLa Kyoto. Briefly: melting temperature (median over replicates), in situ; higher = more thermally stable.
Series [2] has as its system HeLa Kyoto. Briefly: thermal stability score vs G1/S (z-score of summed log2 fold changes over temperatures); higher = more thermally stable than in G1/S.
Series [3] has as its system HeLa Kyoto. Briefly: solubility in G1/S (NP-40 vs SDS abundance) (log2 ratio); higher = more soluble. The conditions noted are these: cell cycle stage: G1/S.
Series [4] has as its system HeLa Kyoto. Description: solubility change mitosis vs G1/S (difference of NP-40 vs SDS log2 ratios) (log2 ratio difference); higher = more soluble in mitosis.
Where [5] appears, read: cell cycle stage: early G1 (4.5 h after nocodazole release).
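Throughout, for melting temperature (median over replicates), in situ: HeLa Kyoto cells synchronized by double thymidine or nocodazole block, proteins quantified by TMT10plex mass spectrometry, three independent biological replicates.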
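Throughout, for solubility change mitosis vs G1/S (difference of NP-40 vs SDS log2 ratios): synchronized HeLa Kyoto cells (double thymidine block for G1/S, nocodazole release for mitosis), protein amounts in NP-40 versus SDS lysates quantified by mass spectrometry, three biological replicates.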
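Throughout, for solubility in G1/S (NP-40 vs SDS abundance): HeLa Kyoto cells arrested at G1/S by double thymidine block, proteins quantified by TMT10plex mass spectrometry in mild NP-40 versus SDS extracts, three biological replicates.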
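Throughout, for thermal stability score vs G1/S (z-score of summed log2 fold changes over temperatures): synchronized HeLa Kyoto cells, proteins quantified by TMT10plex mass spectrometry, three biological replicates, mitosis taken 0.5 h after nocodazole release, G1/S directly after double thymidine block.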

As for “MLTTLKPFGSVSVESKMNNKAGSFFWNLRQFSTLVSTSRTMRLCCLGLCKPKIVHSNWNILNNFHNRMQSTDIIRYLFQDAFIFKSDVGFQTKGISTLTALRIERLLYAKRLFFDSKQSLVPVDKSDDELKKVNLNHEVSNEDVLTKETKPNRISSRKLSEECNSLSDVLDAFSKAPTFPSSNYFTAMWTIAKRLSDDQKRFEKRLMFSHPAFNQLCEHMMREAKIMQYKYLLFSLHAIVKLGIPQNTILVQTLLRVTQERINECDEICLSVLSTVLEAMEPCKNVHVLRTGFRILVDQQVWKIEDVFTLQVVMKCIGKDAPIALKRKLEMKALRELDRFSVLNSQHMFEVLAAMNHRSLILLDECSKVVLDNIHGCPLRIMINILQSCKDLQYHNLDLFKGLADYVAATFDIWKFRKVLFILILFENLGFRPVGLMDLFMKRIVEDPESLNMKNILSILHTYSSLNHVYKCQNKEQFVEVMASALTGYLHTISSENLLDAVYSFCLMNYFPLAPFNQLLQKDIISELLTSDDMKNAYKLHTLDTCLKLDDTVYLRDIALSLPQLPRELPSSHTNAKVAEVLSSLLGGEGHFSKDVHLPHNYHIDFEIRMDTNRNQVLPLSDVDTTSATDIQRVAVLCVSRSAYCLGSSHPRGFLAMKMRHLNAMGFHVILVNNWEMDKLEMEDAVTFLKTKIYSVEALPVAAVNVQSTQ [FASTKD2]”, the results for the melting temperature in series [1] (cell cycle stage: G1/S) and in series [1] (cell cycle stage: mitosis) were 51.8 °C and 51.1 °C, respectively. Moreover, the thermal stability score amounted to 0.322 in series [2] (setting [5]) and 0.825 in series [2] (cell cycle stage: mitosis). The “solubility in G1/S (log2)” value in series [3] is -0.17. Further, the “solubility change mitosis (log2)” value in series [4] is -0.134.

As for “MLVPLAKLSCLAYQCFHALKIKKNYLPLCATRWSSTSTVPRITTHYTIYPRDKDKRWEGVNMERFAEEADVVIVGAGPAGLSAAVRLKQLAVAHEKDIRVCLVEKAAQIGAHTLSGACLDPGAFKELFPDWKEKGAPLNTPVTEDRFGILTEKYRIPVPILPGLPMNNHGNYIVRLGHLVSWMGEQAEALGVEVYPGYAAAEVLFHDDGSVKGIATNDVGIQKDGAPKATFERGLELHAKVTIFAEGCHGHLAKQLYKKFDLRANCEPQTYGIGLKELWVIDEKNWKPGRVDHTVGWPLDRHTYGGSFLYHLNEGEPLVALGLVVGLDYQNPYLSPFREFQRWKHHPSIRPTLEGGKRIAYGARALNEGGFQSIPKLTFPGGLLIGCSPGFMNVPKIKGTHTAMKSGILAAESIFNQLTSENLQSKTIGLHVTEYEDNLKNSWVWKELYSVRNIRPSCHGVLGVYGGMIYTGIFYWILRGMEPWTLKHKGSDFERLKPAKDCTPIEYPKPDGQISFDLLSSVALSGTNHEHDQPAHLTLRDDSIPVNRNLSIYDGPEQRFCPAGVYEFVPVEQGDGFRLQINAQNCVHCKTCDIKDPSQNINWVVPEGGGGPAYNGM [ETFDH]”, the melting temperature amounted to 54.4 °C in series [1] (cell cycle stage: G1/S) and 53.8 °C in series [1] (cell cycle stage: mitosis). Moreover, the thermal stability score in series [2] (setting [5]) was -0.885; in series [2] (cell cycle stage: mitosis), -1.65. For the same sequence, in series [3], the “solubility in G1/S (log2)” value stood at 0.107. In addition, the “solubility change mitosis (log2)” value in series [4] is -0.184.

“MMDIYVCLKRPSWMVDNKRMRTASNFQWLLSTFILLYLMNQVNSQKKGAPHDLKCVTNNLQVWNCSWKAPSGTGRGTDYEVCIENRSRSCYQLEKTSIKIPALSHGDYEITINSLHDFGSSTSKFTLNEQNVSLIPDTPEILNLSADFSTSTLYLKWNDRGSVFPHRSNVIWEIKVLRKESMELVKLVTHNTTLNGKDTLHHWSWASDMPLECAIHFVEIRCYIDNLHFSGLEEWSDWSPVKNISWIPDSQTKVFPQDKVILVGSDITFCCVSQEKVLSALIGHTNCPLIHLDGENVAIKIRNISVSASSGTNVVFTTEDNIFGTVIFAGYPPDTPQQLNCETHDLKEIICSWNPGRVTALVGPRATSYTLVESFSGKYVRLKRAEAPTNESYQLLFQMLPNQEIYNFTLNAHNPLGRSQSTILVNITEKVYPHTPTSFKVKDINSTAVKLSWHLPGNFAKINFLCEIEIKKSNSVQEQRNVTIKGVENSSYLVALDKLNPYTLYTFRIRCSTETFWKWSKWSNKKQHLTTEASPSKGPDTWREWSSDGKNLIIYWKPLPINEANGKILSYNVSCSSDEETQSLSEIPDPQHKAEIRLDKNDYIISVVAKNSVGSSPPSKIASMEIPNDDLKIEQVVGMGKGILLTWHYDPNMTCDYVIKWCNSSRSEPCLMDWRKVPSNSTETVIESDEFRPGIRYNFFLYGCRNQGYQLLRSMIGYIEELAPIVAPNFTVEDTSADSILVKWEDIPVEELRGFLRGYLFYFGKGERDTSKMRVLESGRSDIKVKNITDISQKTLRIADLQGKTSYHLVLRAYTDGGVGPEKSMYVVTKENSVGLIIAILIPVAVAVIVGVVTSILCYRKREWIKETFYPDIPNPENCKALQFQKSVCEGSSALKTLEMNPCTPNNVEVLETRSAFPKIEDTEIISPVAERPEDRSDAEPENHVVVSYCPPIIEEEIPNPAADEAGGTAQVIYIDVQSMYQPQAKPEEEQENDPVGGAGYKPQMHLPINSTVEDIAAEEDLDKTAGYRPQANVNTWNLVSPDSPRSIDSNSEIVSFGSPCSINSRQFLIPPKDEDSPKSNGGGWSFTNFFQNKPND [LIFR]”: the melting temperature worked out at 54.8 °C in series [1] (cell cycle stage: G1/S) and 55.1 °C in series [1] (cell cycle stage: mitosis). The thermal stability score was -3.21 in series [2] (setting [5]) and -1.95 in series [2] (cell cycle stage: mitosis). Also, the “solubility in G1/S (log2)” value in series [3] was found to be 0.206. In series [4], the “solubility change mitosis (log2)” value is -0.094.

On to “MMEEEELEFVEELEAVLQLTPEVQLAIEQVFPSQDPLDRADFNAVEYINTLFPTEQSLANIDEVVNKIRLKIRRLDDNIRTVVRGQTNVGQDGRQALEEAQKAIQQLFGKIKDIKDKAEKSEQMVKEITRDIKQLDHAKRHLTTSITTLNHLHMLAGGVDSLEAMTRRRQYGEVANLLQGVMNVLEHFHKYMGIPQIRQLSERVKAAQTELGQQILADFEEAFPSQGTKRPGGPSNVLRDACLVANILDPRIKQEIIKKFIKQHLSEYLVLFQENQDVAWLDKIDRRYAWIKRQLVDYEEKYGRMFPREWCMAERIAVEFCHVTRAELAKIMRTRAKEIEVKLLLFAIQRTTNFEGFLAKRFSGCTLTDGTLKKLESPPPSTNPFLEDEPTPEMEELATEKGDLDQPKKPKAPDNPFHGIVSKCFEPHLYVYIESQDKNLGELIDRFVADFKAQGPPKPNTDEGGAVLPSCADLFVYYKKCMVQCSQLSTGEPMIALTTIFQKYLREYAWKILSGNLPKTTTSSGGLTISSLLKEKEGSEVAKFTLEELCLICNILSTAEYCLATTQQLEEKLKEKVDVSLIERINLTGEMDTFSTVISSSIQLLVQDLDAACDPALTAMSKMQWQNVEHVGDQSPYVTSVILHIKQNVPIIRDNLASTRKYFTQFCVKFANSFIPKFITHLFKCKPISMVGAEQLLLDTHSLKMVLLDLPSISSQVVRKAPASYTKIVVKGMTRAEMILKVVMAPHEPLVVFVDNYIKLLTDCNTETFQKILDMKGLKRSEQSSMLELLRQRLPAPPSGAESSGSLSLTAPTPEQESSRIRKLEKLIKKRL [VPS53]”, for which the results for the melting temperature in series [1] (cell cycle stage: G1/S) and in series [1] (cell cycle stage: mitosis) were 50 °C and 49.7 °C, respectively. Further, the thermal stability score in series [2] (setting [5]) turned out to be 0.237; in series [2] (cell cycle stage: mitosis) it was 1.04. Besides, the “solubility in G1/S (log2)” value in series [3] stood at 0.196. Moreover, in series [4], the “solubility change mitosis (log2)” value is -0.136.

In the case of “MMFYRLLSIVGRQRASPGWQNWSSARNSTSAAEARSMALPTQAQVVICGGGITGTSVAYHLSKMGWKDIVLLEQGRLAAGSTRFCAGILSTARHLTIEQKMADYSNKLYYQLEQETGIQTGYTRTGSIFLAQTQDRLISLKRINAGLNVIGIPSEIISPKKVAELHHLLNVHDLVGAMHVPEDAVVSSADVALALASAASQNGVQIYDRTSVLHVMVKKGQVTGVETDKGQIECQYFVNCAGQWAYELGLSNEEPVSIPLHACEHFYLLTRPLETPLQSSTPTIVDADGRIYIRNWQGGILSGGFEKNPKPIFTEGKNQLEIQNLQEDWDHFEPLLSSLLRRMPELETLEIMKLVNCPETFTPDMRCIMGESPAVQGYFVLAGMNSAGLSFGGGAGKYLAEWMVHGYPSENVWELDLKRFGALQSSRTFLRHRVMEVMPLMYDLKVPRWDFQTGRQLRTSPLYDRLDAQGARWMEKHGFERPKYFVPPDKDLLALEQSKTFYKPDWFDIVESEVKCCKEAVCVIDMSSFTKFEITSTGDQALEVLQYLFSNDLDVPVGHIVHTGMLNEGGGYENDCSIARLNKRSFFMISPTDQQVHCWAWLKKHMPKDSNLLLEDVTWKYTALNLIGPRAVDVLSELSYAPMTPDHFPSLFCKEMSVGYANGIRVMSMTHTGEPGFMLYIPIEYALHVYNEVMSVGQKYGIRNAGYYALRSLRIEKFFAFWGQDINNLTTPLECGRESRVKLEKGMDFIGRDALLQQKQNGVYKRLTMFILDDHDSDLDLWPWWGEPIYRNGQYVGKTTSSAYSYSLERHVCLGFVHNFSEDTGEEQVVTADFINRGEYEIDIAGYRFQAKAKLYPVASLFTQKRRKDDMELSDLHGK [PDPR]”, the melting temperature in series [1] (cell cycle stage: G1/S) worked out at 53.6 °C; in series [1] (cell cycle stage: mitosis), 53.7 °C. Besides, the thermal stability score was -1.29 in series [2] (setting [5]) and -1.55 in series [2] (cell cycle stage: mitosis). For the same sequence, the “solubility in G1/S (log2)” value in series [3] was -0.175. The “solubility change mitosis (log2)” value in series [4] is -0.203.

Consider “MMGRSPGFAMQHIVGVPHVLVRRGLLGRDLFMTRTLCSPGPSQPGEKRPEEVALGLHHRLPALGRALGHSIQQRATSTAKTWWDRYEEFVGLNEVREAQGKVTEAEKVFMVARGLVREAREDLEVHQAKLKEVRDRLDRVSREDSQYLELATLEHRMLQEEKRLRTAYLRAEDSEREKFSLFSAAVRESHEKERTRAERTKNWSLIGSVLGALIGVAGSTYVNRVRLQELKALLLEAQKGPVSLQEAIREQASSYSRQQRDLHNLMVDLRGLVHAAGPGQDSGSQAGSPPTRDRDVDVLSAALKEQLSHSRQVHSCLEGLREQLDGLEKTCSQMAGVVQLVKSAAHPGLVEPADGAMPSFLLEQGSMILALSDTEQRLEAQVNRNTIYSTLVTCVTFVATLPVLYMLFKAS [CCDC51]”, for which the melting temperature in series [1] (cell cycle stage: G1/S) stood at 53.5 °C; in series [1] (cell cycle stage: mitosis) it was 52.7 °C. For the same sequence, the results for the thermal stability score in series [2] (setting [5]) and in series [2] (cell cycle stage: mitosis) were 0.333 and 0.178, respectively. In addition, the “solubility in G1/S (log2)” value in series [3] amounted to 0.273. Further, in series [4], the “solubility change mitosis (log2)” value was -0.0792.
